Assay results from PMC7721647, “The Human RNA Helicase DDX21 Presents a Dimerization Interface Necessary for Helicase Activity” (iScience, 2020).
Each block holds one molecule with its values, some of them ahead of it.

Tests used:
[1] = target: DDX21_(Core-DD) (human); assay: SEC-SAXS; SAXS coupled to size exclusion chromatography; oligomeric state from SAXS molecular weight estimates (Table S3)
[2] = target: DDX21_(Core-DD) (human); assay: mass photometry; purified proteins alone in the low nanomolar range (30 and 15 nM); monomer to dimer
[3] = target: DDX21_(Core-DD) (human); assay: SEC-MALS; purified DDX21 constructs alone; conditions in the Transparent Methods (not shown)
[4] = target: the molecule itself; assay: cell-based or functional assay
[5] = target: the molecule itself; assay: SEC-SAXS; SAXS coupled to size exclusion chromatography; oligomeric state from SAXS molecular weight estimates (Table S3)
[6] = target: T1, DDX21Fl (human, UniProt Q9NR30 1-783); assay: fluorescence polarization; FP: 50 mM Tris pH 7.5, 50 mM KCl, 5 mM MgCl2, no ATP; Hill-slope fit; temperature not given in the material; conditions: protein: recombinant; tags: N-terminal Trx-His6, cut with thrombin; chain copies: 2; label: 5'-FAM on RNA; R-loop: 15-mer RNA on DNA oligo 1; DNA duplex arms with unpaired DNA oligo 2 loop
T1 sequence: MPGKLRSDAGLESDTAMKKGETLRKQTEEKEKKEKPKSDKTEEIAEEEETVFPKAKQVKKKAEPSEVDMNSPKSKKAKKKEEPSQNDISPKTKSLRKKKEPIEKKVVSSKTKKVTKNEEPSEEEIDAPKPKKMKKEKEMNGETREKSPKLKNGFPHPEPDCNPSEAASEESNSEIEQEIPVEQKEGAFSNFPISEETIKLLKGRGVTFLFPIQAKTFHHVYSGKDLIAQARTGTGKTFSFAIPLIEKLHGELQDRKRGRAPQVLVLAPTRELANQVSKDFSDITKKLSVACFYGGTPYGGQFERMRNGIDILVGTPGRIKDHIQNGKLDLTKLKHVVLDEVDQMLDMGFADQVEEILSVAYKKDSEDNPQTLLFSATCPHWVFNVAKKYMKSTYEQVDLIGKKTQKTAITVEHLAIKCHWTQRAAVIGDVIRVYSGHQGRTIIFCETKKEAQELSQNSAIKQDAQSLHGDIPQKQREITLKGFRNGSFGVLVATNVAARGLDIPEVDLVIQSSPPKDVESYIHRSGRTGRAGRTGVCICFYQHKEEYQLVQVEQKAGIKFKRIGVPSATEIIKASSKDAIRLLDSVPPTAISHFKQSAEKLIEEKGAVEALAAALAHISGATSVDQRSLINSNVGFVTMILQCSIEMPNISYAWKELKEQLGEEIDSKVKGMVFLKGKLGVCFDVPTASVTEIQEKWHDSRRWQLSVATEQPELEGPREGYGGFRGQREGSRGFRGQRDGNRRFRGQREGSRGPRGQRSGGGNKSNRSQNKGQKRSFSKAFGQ

[7] = target: the molecule itself; assay: SEC-MALS; purified DDX21 constructs alone; conditions in the Transparent Methods (not shown)
[8] = target: the molecule itself; assay: mass photometry; DDX21Fl-R-loop complex at 30 nM

stoichiometry N [1]: 2
stoichiometry N [2]: 2
stoichiometry N [3]: 2
Molecule: DDX21_(Core-DD) (domain or fragment)

B1: DDX21ΔN monomer mutant (domain or fragment)
chain: GAFSNFPISEETIKLLKGRGVTFLFPIQAKTFHHVYSGKDLIAQARTGTGKTFSFAIPLIEKLHGELQDRKRGRAPQVLVLAPTRELANQVSKDFSDITKKLSVACFYGGTPYGGQFERMRNGIDILVGTPGRIKDHIQNGKLDLTKLKHVVLDEVDQMLDMGFADQVEEILSVAYKKDSEDNPQTLLFSATCPHWVFNVAKKYMKSTYEQVDLIGKKTQKTAITVEHLAIKCHWTQRAAVIGDVIRVYSGHQGRTIIFCETKKEAQELSQNSAIKQDAQSLHGDIPQKQREITLKGFRNGSFGVLVATNVAARGLDIPEVDLVIQSSPPKDVESYIHRSGRTGRAGRTGVCICFYQHKEEYQLVQVEQKAGIKFKRIGVPSATEIIKASSKDAIRLLDSVPPTAISHFKQSAEKLIEEKGAVEARRRRRRHISGATSVDQRSLINSNVGFVTMILQCSIEMPNISYAWKELKEQLGEEIDSKVKGMVFLKGKLGVCFDVPTASVTEIQEKWHDSRRWQLSVATEQPELEGPREGYGGFRGQREGSRGFRGQRDGNRRFRGQREGSRGPRGQRSGGGNKSNRSQNKGQKRSFSKAFGQ
dsRNA unwinding (in vitro helicase assay with RNase T1), activity relative to the dimeric protein [4]: ~50%

B2: DDX21ΔN (domain or fragment, human, UniProt Q9NR30 186-783, looked up)
chain: GAFSNFPISEETIKLLKGRGVTFLFPIQAKTFHHVYSGKDLIAQARTGTGKTFSFAIPLIEKLHGELQDRKRGRAPQVLVLAPTRELANQVSKDFSDITKKLSVACFYGGTPYGGQFERMRNGIDILVGTPGRIKDHIQNGKLDLTKLKHVVLDEVDQMLDMGFADQVEEILSVAYKKDSEDNPQTLLFSATCPHWVFNVAKKYMKSTYEQVDLIGKKTQKTAITVEHLAIKCHWTQRAAVIGDVIRVYSGHQGRTIIFCETKKEAQELSQNSAIKQDAQSLHGDIPQKQREITLKGFRNGSFGVLVATNVAARGLDIPEVDLVIQSSPPKDVESYIHRSGRTGRAGRTGVCICFYQHKEEYQLVQVEQKAGIKFKRIGVPSATEIIKASSKDAIRLLDSVPPTAISHFKQSAEKLIEEKGAVEALAAALAHISGATSVDQRSLINSNVGFVTMILQCSIEMPNISYAWKELKEQLGEEIDSKVKGMVFLKGKLGVCFDVPTASVTEIQEKWHDSRRWQLSVATEQPELEGPREGYGGFRGQREGSRGFRGQRDGNRRFRGQREGSRGPRGQRSGGGNKSNRSQNKGQKRSFSKAFGQ
notes: human DDX21 without the N-terminal 185 amino acids (start 186 worked out from this statement); source: Transparent Methods
stoichiometry N [5]: 2

B3: R-loop (mixed)
RNA: GUUUCGGAUCGACGC
DNA 1: GTACCCGGGGATCCTCTAGAGTCGAGCGTCGATCCGAAACTTGGCACTGGCCGTCGTTTTACAAC
DNA 2: GTTGTAAAACGACGGCCAGTGCCTTTTCCCAGCCTCAATCTCATCACTCTAGAGGATCCCCGGGTAC
Kd [6]: 9.2 ± 0.7 nM

B4: DDX21Fl monomer mutant (enzyme)
chain: MPGKLRSDAGLESDTAMKKGETLRKQTEEKEKKEKPKSDKTEEIAEEEETVFPKAKQVKKKAEPSEVDMNSPKSKKAKKKEEPSQNDISPKTKSLRKKKEPIEKKVVSSKTKKVTKNEEPSEEEIDAPKPKKMKKEKEMNGETREKSPKLKNGFPHPEPDCNPSEAASEESNSEIEQEIPVEQKEGAFSNFPISEETIKLLKGRGVTFLFPIQAKTFHHVYSGKDLIAQARTGTGKTFSFAIPLIEKLHGELQDRKRGRAPQVLVLAPTRELANQVSKDFSDITKKLSVACFYGGTPYGGQFERMRNGIDILVGTPGRIKDHIQNGKLDLTKLKHVVLDEVDQMLDMGFADQVEEILSVAYKKDSEDNPQTLLFSATCPHWVFNVAKKYMKSTYEQVDLIGKKTQKTAITVEHLAIKCHWTQRAAVIGDVIRVYSGHQGRTIIFCETKKEAQELSQNSAIKQDAQSLHGDIPQKQREITLKGFRNGSFGVLVATNVAARGLDIPEVDLVIQSSPPKDVESYIHRSGRTGRAGRTGVCICFYQHKEEYQLVQVEQKAGIKFKRIGVPSATEIIKASSKDAIRLLDSVPPTAISHFKQSAEKLIEEKGAVEARRRRRRHISGATSVDQRSLINSNVGFVTMILQCSIEMPNISYAWKELKEQLGEEIDSKVKGMVFLKGKLGVCFDVPTASVTEIQEKWHDSRRWQLSVATEQPELEGPREGYGGFRGQREGSRGFRGQRDGNRRFRGQREGSRGPRGQRSGGGNKSNRSQNKGQKRSFSKAFGQ
dsRNA unwinding (in vitro helicase assay with RNase T1), activity relative to the dimeric protein [4]: ~50%

B5: full-length DDX21 (DDX21Fl), affinity tag cleaved (enzyme, human, UniProt Q9NR30 1-783, looked up)
chain: MPGKLRSDAGLESDTAMKKGETLRKQTEEKEKKEKPKSDKTEEIAEEEETVFPKAKQVKKKAEPSEVDMNSPKSKKAKKKEEPSQNDISPKTKSLRKKKEPIEKKVVSSKTKKVTKNEEPSEEEIDAPKPKKMKKEKEMNGETREKSPKLKNGFPHPEPDCNPSEAASEESNSEIEQEIPVEQKEGAFSNFPISEETIKLLKGRGVTFLFPIQAKTFHHVYSGKDLIAQARTGTGKTFSFAIPLIEKLHGELQDRKRGRAPQVLVLAPTRELANQVSKDFSDITKKLSVACFYGGTPYGGQFERMRNGIDILVGTPGRIKDHIQNGKLDLTKLKHVVLDEVDQMLDMGFADQVEEILSVAYKKDSEDNPQTLLFSATCPHWVFNVAKKYMKSTYEQVDLIGKKTQKTAITVEHLAIKCHWTQRAAVIGDVIRVYSGHQGRTIIFCETKKEAQELSQNSAIKQDAQSLHGDIPQKQREITLKGFRNGSFGVLVATNVAARGLDIPEVDLVIQSSPPKDVESYIHRSGRTGRAGRTGVCICFYQHKEEYQLVQVEQKAGIKFKRIGVPSATEIIKASSKDAIRLLDSVPPTAISHFKQSAEKLIEEKGAVEALAAALAHISGATSVDQRSLINSNVGFVTMILQCSIEMPNISYAWKELKEQLGEEIDSKVKGMVFLKGKLGVCFDVPTASVTEIQEKWHDSRRWQLSVATEQPELEGPREGYGGFRGQREGSRGFRGQRDGNRRFRGQREGSRGPRGQRSGGGNKSNRSQNKGQKRSFSKAFGQ
notes: human DEAD-box RNA helicase DDX21, full length; Tag state is told only for the SEC-MALS mass (cleaved); Construct details are in the Transparent Methods; also called nucleolar RNA helicase II/Guα; source: Transparent Methods
stoichiometry N [7]: 2

B6: full-length DDX21 (DDX21Fl) with uncleaved affinity tag (enzyme, human, UniProt Q9NR30 1-783, looked up)
chain: MPGKLRSDAGLESDTAMKKGETLRKQTEEKEKKEKPKSDKTEEIAEEEETVFPKAKQVKKKAEPSEVDMNSPKSKKAKKKEEPSQNDISPKTKSLRKKKEPIEKKVVSSKTKKVTKNEEPSEEEIDAPKPKKMKKEKEMNGETREKSPKLKNGFPHPEPDCNPSEAASEESNSEIEQEIPVEQKEGAFSNFPISEETIKLLKGRGVTFLFPIQAKTFHHVYSGKDLIAQARTGTGKTFSFAIPLIEKLHGELQDRKRGRAPQVLVLAPTRELANQVSKDFSDITKKLSVACFYGGTPYGGQFERMRNGIDILVGTPGRIKDHIQNGKLDLTKLKHVVLDEVDQMLDMGFADQVEEILSVAYKKDSEDNPQTLLFSATCPHWVFNVAKKYMKSTYEQVDLIGKKTQKTAITVEHLAIKCHWTQRAAVIGDVIRVYSGHQGRTIIFCETKKEAQELSQNSAIKQDAQSLHGDIPQKQREITLKGFRNGSFGVLVATNVAARGLDIPEVDLVIQSSPPKDVESYIHRSGRTGRAGRTGVCICFYQHKEEYQLVQVEQKAGIKFKRIGVPSATEIIKASSKDAIRLLDSVPPTAISHFKQSAEKLIEEKGAVEALAAALAHISGATSVDQRSLINSNVGFVTMILQCSIEMPNISYAWKELKEQLGEEIDSKVKGMVFLKGKLGVCFDVPTASVTEIQEKWHDSRRWQLSVATEQPELEGPREGYGGFRGQREGSRGFRGQRDGNRRFRGQREGSRGPRGQRSGGGNKSNRSQNKGQKRSFSKAFGQ
notes: human DEAD-box RNA helicase DDX21, full length; Form used in mass photometry; also called wild-type protein; source: Transparent Methods
stoichiometry N [8]: 2
